# B1: Nectin-1 (Homo sapiens), Q15223 (parent)
# chain: MARMGLAGAAGRWWGLALGLTAFFLPGVHSQVVQVNDSMYGFIGTDVVLHCSFANPLPSVKITQVTWQKSTNGSKQNVAIYNPSMGVSVLAPYRERVEFLRPSFTDGTIRLSRLELEDEGVYICEFATFPTGNRESQLNLTVMAKPTNWIEGTQAVLRAKKGQDDKVLVATCTSANGKPPSVVSWETRLKGEAEYQEIRNPNGTVTVISRYRLVPSREAHQQSLACIVNYHMDRFKESLTLNVQYEPEVTIEGFDGNWYLQRMDVKLTCKADANPPATEYHWTTLNGSLPKGVEAQNRTLFFKGPINYSLAGTYICEATNPIGTRSGQVEVNITEFPYTPSPPEHGRRAGPVPTAIIGGVAGSILLVLIVVGGIVVALRRRRHTFKGDYSTKKHVYGNGYSKAGIPQHHPPMAQNLQYPDDSDDEKKAGPLGGSSYEEEEEEEEGGGGGERKVGGPHPKYDEDAKRPYFTVDEAEARQDGYGDRTLGYQYDPEQLDLAENMVSQNDGSFISKKEWYV
# Variants of: B1
# Conditions: with NECTIN3, Q9NQS3-1
# Chain of NECTIN3, Q9NQS3-1 (Q9NQS3 whole entry, looked up): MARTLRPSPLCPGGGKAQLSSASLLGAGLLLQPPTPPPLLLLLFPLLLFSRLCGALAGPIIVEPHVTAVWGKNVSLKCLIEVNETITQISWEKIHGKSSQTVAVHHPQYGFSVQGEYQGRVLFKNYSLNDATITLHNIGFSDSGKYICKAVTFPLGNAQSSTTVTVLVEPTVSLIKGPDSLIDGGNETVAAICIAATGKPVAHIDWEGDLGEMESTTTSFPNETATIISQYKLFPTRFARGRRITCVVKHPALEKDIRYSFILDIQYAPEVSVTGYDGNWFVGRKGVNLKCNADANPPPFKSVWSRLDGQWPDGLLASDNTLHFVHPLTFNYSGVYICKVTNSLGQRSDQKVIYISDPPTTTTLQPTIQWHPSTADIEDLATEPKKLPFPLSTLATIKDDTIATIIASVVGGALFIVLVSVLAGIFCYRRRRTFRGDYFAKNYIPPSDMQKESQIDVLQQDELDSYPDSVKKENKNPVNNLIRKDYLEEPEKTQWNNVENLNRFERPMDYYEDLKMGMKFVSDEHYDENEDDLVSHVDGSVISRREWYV
row,Variant,effect of a mutation on the interaction
1,F129D,disrupting interaction strength

# Variants of: B1
# Conditions: with nect4_human NECTIN4, Q96NY8
# Chain of nect4_human NECTIN4, Q96NY8 (Q96NY8 whole entry): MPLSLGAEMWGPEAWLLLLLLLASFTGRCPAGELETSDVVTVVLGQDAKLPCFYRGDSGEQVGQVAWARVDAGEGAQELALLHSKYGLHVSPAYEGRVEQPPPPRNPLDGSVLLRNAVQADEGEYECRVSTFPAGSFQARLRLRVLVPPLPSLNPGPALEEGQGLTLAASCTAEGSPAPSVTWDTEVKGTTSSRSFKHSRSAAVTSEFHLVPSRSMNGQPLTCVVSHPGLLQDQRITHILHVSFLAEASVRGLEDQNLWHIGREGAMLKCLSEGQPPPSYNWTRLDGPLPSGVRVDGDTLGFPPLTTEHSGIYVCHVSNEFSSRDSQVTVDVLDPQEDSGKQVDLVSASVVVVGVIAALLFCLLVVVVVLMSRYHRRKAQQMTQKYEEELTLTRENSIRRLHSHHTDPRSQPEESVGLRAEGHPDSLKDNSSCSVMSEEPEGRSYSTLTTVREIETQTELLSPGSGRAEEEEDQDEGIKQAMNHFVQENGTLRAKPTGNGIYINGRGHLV
row,Variant,effect of a mutation on the interaction
1,F129D,disrupting interaction strength

# — IntAct's records for PubMed 22902367
